Measured values reported in the DeepSol protein solubility set.

Assay: soluble on expression in E. coli; label from the status in PepcDB or PDB records

Soluble on expression in E. coli, soluble:
MSDATLHNTTQDPDDFAVQIADQVESFLVAVTEVAKGDEPDSAVPFLLLEVSQLLLAGGRLGAHEDIVPDERYEPDMGPEPDVDELRERLATMLDPVDVYSEVFDPYEPRKAPVPARISDDLADVIADLRHGMAHYRAGRTTEALWWWQFSYFSNWGSTASATLRALQSLVAHVRLNQPLEELDGLDTDQDLSEDALAEEAGRVMASEIAGPLGLRTVRLEHHHHHH
MSLNDYSRQNFLDLNLFRGLGEDPAYHPPVLTDRPRDWPLDRWAEAPRDLGYSDFSPYQWRGLRMLKDPDTQAVYHDMLWELRPRTIVELGVYNGGSLAWFRDLTKIMGIDCQVIGIDRDLSRCQIPASDMENITLHQGDCSDLTTFEHLREMAHPLIFIDDAHANTFNIMKWAVDHLLEEGDYFIIEDMIPYWYRYAPQLLSEYLGAFRDVLSMDMLYANASSQLDRGVLRRVAAKQEGHHHHHH
MAEKTYSGFVAIVGKPNVGKSTLLNNLLGVKVAPISPRPQTTRKRLRGILTEGRRQIVFVDTPGLHKPMDALGEFMDQEVYEALADVNAVVWVVDLRHPPTPEDELVARALKPLVGKVPILLVGNKLDAAKYPEEAMKAYHELLPEAEPRMLSALDERQVAELKADLLALMPEGPFFYPEDYAKSDQTFGEWVAEILREEAMKRLWHEVPYAVATKVEEVAERENGVLYIKAILYVERPSQKAIVIGEGGRKIKEIGQATRKQLEALLGKKVYLDLEVKVYPDWRKDPEALRELGYRSSVG
MAKHGADEPSSRSGSPDREGRASEDRSLLHQRLAVRELIDTEVSYLHMLQLCASDIRSRLQQLPQGDLDVLFSNIDDIIKVNSRFLHDLQETASKEEEQVQLVGNIFLEFQEELEQVYKVYCASYDQALLLVDTYRKEPELQRHIQGIVEAVVPQAGSSGLSFLLVIPLQRITRYPLLLQKILENTVPDASAYPVLQRAVSALQDVNTNINEYKMRKEVASKYTKVEQLTLRERLARINTHTLSKKTTRLSQLLKQEAGLIPRTEDKEFDDLEERFQWVSLCVTELKNNVAAYLDNLQGAVGFYHWLTPTQMIDGLALGESTPGPLIMVVAFVGFLAAYNHSLLGAEHQFIAVLQDVRDHRITQVRAAEILNLSTRQITRLLQKLNQDGVSGLAHASRGQPGHHRHDELLKSKCLSIISEHLLGFGPTLAHEKLSSIFDLNIPVETVRRWMMANDLWIPRSKRLKRPYQPRYNRDCFGELIQIDGSYHDWFEGRAAKCCLLVYIDDATGKLLHLRFCEAETTFDYMLSTRAYIEQYGKPLAFYSDKHSVFRVNQKSRKDSQITQFGRILNELNIDIIFANSPQAKGRVERANRTLQDRLIKEMRLEGISSIAEANAWLPCFIEHFNQKFAKCARNSKNLHRSLTESDAELEDIFTWQEPRKVTKNLTITYDKCIYLLEPTELNHKLVGQYISFLEYPDGTVALMHEGRKINYSVFNKLAGLQQNEVVENKRLGSVLAHIQQQHEELEKQNKRSRLKKSMPSRKAQKAVIEQRKLNPVLDSCG
MRGLRKEALEELMKLLNMKDFPYRIEGIDISHLQGKYTVASLVVFEDGFPKKGDYRRYKIEQDHPDDYESIRTVVKRRYSKHPLPNLLFVDGGIGQVNAAIEALKEIGKDCPVVGLAKKEETVVFENREIHLPHDHPVLRLLVQIRDETHRFAVSYHRKRREKESLRSVLDNVPGIGPIRKKKLIEHFGSLENIRSASLEEIARVIGSTEIARRVLDILG
SDMGTSALSKKPWWTLPQNFHAPMVFHMEEDQEELIFGHGDTYLRCIEVHSHTLIQLESWFTATGQTRVTVGPHRARQWLLHMFCCVGSQDSYHHARGLEMLERVRSQPLTNDDLVTSISVPPYTGDLSLAPRISGTVCLSVPQPSPYQVIGCSGFHLSSLYP
MNCYNKFAHIYDKLIRADVDYKKWSDFIIEKCVENNLVFDDYLDLACGTGNLTENLCPKFKNTWAVDLSQEMLSEAENKFRSQGLKPRLACQDISNLNINRKFDLITCCLDSTNYIIDSDDLKKYFKAVSNHLKEGGVFIFDINSYYKLSQVLGNNDFNYDDDEVFYYWENQFEDDLVSMYISFFVRDGEFYKRFDEEHEERAYKEEDIEKYLKHGQLNILDKVDCYSNKKVEKFTERITYLVKLGGKSNGR
MADEATRRVVSEIPVLKTNAGPRDRELWVQRLKEEYQSLIRYVENNKNADNDWFRLESNKEGTRWFGKCWYIHDLLKYEFDIEFDIPITYPTTAPEIAVPELDGKTAKMYRGGKICLTDHFKPLWARNVPKFGLAHLMALGLGPWLAVEIPDLIQKGVIQHKEKCNQLEHHHHHH
MSLNRPNHVAPKTLLETLPRDRAESYLNHCSGNSASASALYLWEMDMAAALHEVLSMTEVAVRGAIDAQLQSFAKSHGVASGEWIKERDSLPHLSELRFANGRPLFDHGSLRRMSRKQEGGRTRMHPRSQASTSHGDLIAQVMFGTWGAMLPDKNDSRPQSVQDAINGLWREALQEAFPQYREGHHHHHH
MSLEKNALYFVPLGGAGEIGMNLNLYAHQGKWLMVDLGVTFGNETTPGVDIILPDPSFIEERKGDLVGLVLTHAHEDHVGAVAYLWPYLECPVYATPFTAEFLRHKLREEGIEPDVKLIEIPLGGRFTVGPFDIEMITTTHSIPEPNHLAIRTTAGTVLHTADWKFDPEPLVGPPADEAALRRLGDEGVLAMVGDSTNIFTEGHSASEGDVRRSMIDLFARFQGRIAVGCFASNIARMETIALAAKANGREVALVGRSLWRMMETARTCGYLKGCPAFLGDEEAAKLPRDKVVYICTGSQGEPRAALKRIASGSHPYVSLSAGDVVIFSSRVIPGNERSILQLQNQLVEMGVKLITSRDAMVHVSGHPGAEEVRSLYGMVRPSIALPVHGEFLHLDHHADVARDLGVAHVVRITNGAVVRLDGAEPTVVGKVPFGRLALDGDRLLQIDCEIIRDRKRMGYNGSVAVSLAIDDKGKLLGTPKISARGLLDPEDDADEVADLTNRVRGAVNAVRPADRKDDAAVAEAVRLAVRRVFRQGQNRRPVTDIHVLRVEGHHHHHH

Soluble on expression in E. coli, not soluble:
MGSDKIHHHHHHMSGSKIKIALFNDTDFRVNIGCRLTSQGLKQQILDAFPAAEITSIGFNFAAFRKEFPKSTSAGGYELSDIETRLSTAYGEGAVDHIRAADFVILQPEGSLDHRTTAEGLATFFTPILTARKLGKPFAVLNGTIPIYEGERSDYLKGLFRELGHVAARDEISAEYYGIEFLADAAFLRISPAPVADRDGCLITTGARNNAEEDVEILKAALKICEAWKLRPVVLTHAVERFSPYEAEIIGRGGIFAETASIEHAAETISKCRLHIGGRYHMAIFSLLCNVPSLLFDVKTHKNQWLERYSPLITLVHPHTDLDAAAAAVLSGGVSQGHPGSTAAEKYVHFLKRAMAEQPL
MGSDKIHHHHHHMKIVAIDTSTKQLSVALSDGQQILAEASYVTSLNHATKLMPLLERMMQEVNWSPRDLTRIVIADGPGSYTGLRIGATTAKTLAYTLGIDLVPVSTLELMAASAGSTGRIVAIQDARRGTGFVGFYEEGQLVGEEQHTVIADFVKTLPTDTKITGDTDKFTTELQSFTIVDPAFRAPRAGVLALLGAKREPVETHAFEPRYLRLAEAEAKWIEAQRHD
MGSDKIHHHHHHMAMTQTENQTAPQQHIRIFDTTLRDGEQSPGVALNHAQKLEIAHTLARMGVDVIEAGFPIASPGDLEGVSRIAREVRGPVITALARANRADIEAAAKGVEAAEKSRIHTFIATSPIHMQKKLNLEPDAVIERAVEAVRLARQYVDDVEFSAEDATRSEWDFLSRIFKAAVEAGATTINVPDTVGYTTPEEMRKLFAYLKAKLPAHVILSSHCHDDLGMAVANSIAAAEGGARQIECTINGIGERAGNASLEEIVMAFHTRRDVYGYETGIRTRELYRASRLVSRLSGMPVQPNKAIVGDNAFAHESGIHQDGVIKARETYEIMNAELVGREAAVLVMGKHSGRAAFRKALTDLGYGDIPDDKVQHLFGRFKDLADRKGQIYAEDLRALVDARSDVPQTFSLEGFQITSGMNMMPVAFVRLHTPDGPVDATAHGDGPVEAAFQAISKITGISPTLESYRIQSVTRGDDALGEVSIHVRHGETQLNGTGVATDIVEASARAWIRVMNMIVAGMGKNKAITQMTP
MGSDKIHHHHHHMHSKTFGDVSIDEMVSRIKEFILKDNNCNYKITIGTDSQNKNLTKVVVVVAIHRIGSGGIFFYDIKHVHKISNVRQKIYYETALSLELASKVSHAFAEANIQEDIEIHADIGSNRKGKTYPLINEITGWITGEGYKYQIKPYSYAASCIADKISK
MGSDKIHHHHHHALLGTTGLLHAPTADMQRDKTFLFGGNYLNTHPLSTHFRSSEVGYTFNYYINITIFPWLEVSYICTLVHADHGSTYFPEQSWGKFTNQDRAFSARLRLWKEGWWKEWTPQIVLGLDDPTSHADHGGGELVSGNTSGSNNYATRYYLAVTKHLDVQNIGEWGIHAAFVYGNAKGIEHYKRPSFGTNFRFQLLGDQPLIKVVNNLNLMAEYDARTVNIGAHYQLWKDHINLIAELNNGKYFSGGIYFKIHLK
MMSASSPYPIGTPGQPWQASERQAWREQRHIQREYQQEVVPKILALNSLFDVSTYGALSYDPTRYPLYVVKSRHWNANKPTVLITGGVHGYETSGVHGALQFLATAAEPYLAHFNLLAAPCVSPWGYETINRWNPNAIDPNRSFVQDSPAEEAALLMAMVAEHGPILLHIDLHETTDTDESEFRPALAARDGKAYLEGSIPDGFYTVGDTENPQLAFQQAVIDSVRRVTHIAPADENHEIIGSPVVAEGVILYPMRELGLCGGMTDCTYSTTTEVYPDSPKVTAQLCNDAQVAAIIGALDYVLANEQSLLGE
MAHHHHHHMEKQCPVCYFNLPDPESAIAPYDTELNYFMWGPGFEWQPEPEVKNILVEEENFEESEQSEESVAGLEELDEKVDRSEAKTMFNEKSSNGKVSVEDASQNARKLGLAPSSLDEKKVRDLYGDSLTYEQYLEYLAMCVHDRDNMEELIKMFSHFDNNASGFLTKNQMRNILTTWGDALTEQEANDALNAFSSEDRIDYKLFCEDILQ
MSVEASRTCFLIDSLLNKKPKEELETEEEDEEEDEEEELSSSEVTSENDMETESASSSASSVGQPKPDFSAFHKIFSNLDFAKLAAVKRNGHHQPMLFRPECFFPLELSKHLHLVQQTFQMNVLQNLGHTLPLPFVPMLKNVAPAQKRLNNKRASYVDHSQKGNLKKYRCDVCDKTFSRSNTLITHKRIHTGEKPFKCEHCGRAFRQPGNLTRHRLTHTTVKPYVCGLCDKAFNRASNLHTHMRTHTNV
MPCRLTRLFGIEFPIIQAPMAGVQGSALAIAVSEAGGLGSLPCAMLSLEALEAELTAIRSQTAKPINVNFFCHREPVAQAAKQAAWLEQLAPYFAEFNLDPNAQPAGAQRTPYSKAQAEVLAKFKPEVVSFHFGLPDEELLLEIKSWGSKVISTATTVEEALWLEARGADAIIAQGLEAGGHRGHFLSEDLTEQLGTFSLLPQIIAAVEIPVIAAGGIVDATTVRAAMTMGASAVQVGTAYLLCPECNTSAIHREALQSDAAQHTALTNLFSGRPARGIVNRFMAEMGPMNEAVPDFPLASSAVAGLRTAAERLGFWDFSPLWCGQNASGCRAIPAADLTRSFVLSLPSSCVEPQEKSGAAALEHHHHHH
MGHHHHHHSHMAGLQRLASHLPVGVMLPHNTTEAPGPHSAKQDSYEQGDSSQQSLKGHLRNNFQKQLLSNKELILDKVYTHPKWNTQTKARSYSYPHCTGISQQDPESDSQGQGNGLFYSSGPQSWYPKANNQDFIPFTKKRVGVDRAFPLKPMVHRKSCSTGEAGTDGDHNVYPRPPEPREFSSRNFGVRNQGNFSVVGTVLAATQAEKAVANFDRTEWVQIRRLEAAGESLEEEIRRKQILLRGS
